Columns and labels:
[1] = target: human CD46 (human), P15529; assay: cell-based or functional assay
[2] = target: human CD46 (human) (UniProt P15529); assay: FACS on Du-145 cells, 4 °C overnight, MFI curve fit
[3] = target: human CD46 (human) (UniProt P15529); assay: FACS on CHO cells transfected with human CD46, 4 °C overnight, MFI curve fit
[4] = target: human CD46 (human) (UniProt P15529); assay: FACS on CHO-huCD46 cells, 4 C overnight, MFI against antibody concentration

Chain of human CD46 (human), P15529 (P15529 35-392): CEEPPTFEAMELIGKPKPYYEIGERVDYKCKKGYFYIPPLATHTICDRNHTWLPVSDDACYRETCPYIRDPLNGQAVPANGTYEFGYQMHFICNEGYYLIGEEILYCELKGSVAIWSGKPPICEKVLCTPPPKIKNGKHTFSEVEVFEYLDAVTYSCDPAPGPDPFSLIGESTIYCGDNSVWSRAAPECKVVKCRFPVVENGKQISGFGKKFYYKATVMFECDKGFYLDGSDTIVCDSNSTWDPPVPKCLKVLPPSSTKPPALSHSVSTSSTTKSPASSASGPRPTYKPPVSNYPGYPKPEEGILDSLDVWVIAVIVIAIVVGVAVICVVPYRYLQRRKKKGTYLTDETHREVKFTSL
Chain of human CD46 (human) (P15529 35-392): as above

| Kd [2] [nM] | Kd [3] [nM] | EC50 (read off the curve) [4] [nM] | Binder | EC50 of cell killing, LNCaP C4-2B cells with prior exposure to abiraterone (CD46 upregulated), 96 hours [1] [pM] | EC50 of cell killing, LNCaP C4-2B cells without prior exposure to abiraterone, 96 hours [1] [pM] | cytotoxic activity on H660 cells in vitro (Calcein AM viability, 7 days) [1] [nM] | fold drop of killing EC50 on H660 cells after enzalutamide treatment [1] [fold] |
| --- | --- | --- | --- | --- | --- | --- | --- |
| – | – | – | YS5-mcvcpab-MMAF (protein, here or on the partner: monomethyl auristatin F (MMAF) conjugated via the MC-vc-PAB linker, on average about 3 drugs per antibody molecule; attachment residues not stated) VH: QVQLVQSGGGVVQPGRSLRLACAASGLTVNNYAMHWVRQAPGKGLEWVAVISYDGNNKYYADSVKGRFTISRDNSKNTLYLQMNSLRAEDTAVYYCAKGGGYFDLWGRGTLVTVSS VL: QSVLTQPPSVSGAPGQRVTISCTGSSSNIGAGYDVHWYQQLPGTAPKLLIYGNNNRPSGVPDRFSGSKSGTSASLAITGLQAEDEADYYCSSYTSGTWLFGGGTKLTVL | 21 | 169 | < 1 | 4 to 5 |
| 2.19 | 0.867 | 1 | YS5 (antibody, V domains shown) VH: QVQLVQSGGGVVQPGRSLRLACAASGLTVNNYAMHWVRQAPGKGLEWVAVISYDGNNKYYADSVKGRFTISRDNSKNTLYLQMNSLRAEDTAVYYCAKGGGYFDLWGRGTLVTVSS VL: QSVLTQPPSVSGAPGQRVTISCTGSSSNIGAGYDVHWYQQLPGTAPKLLIYGNNNRPSGVPDRFSGSKSGTSASLAITGLQAEDEADYYCSSYTSGTWLFGGGTKLTVL | – | – | – | – |
| 0.043 | – | – | YS12 (antibody, V domains shown) VH: QVQLVESGGGVVQPGRSLRLSCAASGFTFSTYGMHWVRQAPGKGLEWLSFISYDGDEKYYADSVKGRFTISRDNSKNTLYLQMNSLRAEDTAVYWCAKASGYGMGILDYWGQGTLVTVSS VL: SSELTQDPAVSVALGQTVRITCQGDSLRSYYVSWFQQKPGQAPVFVMYGQNNRPSGISERFSGSSSGNTASLIITGAQAEDEADYYCHSRDSSGTHLRVFGGGTKLTVL | – | – | – | – |

Reference: patent US20170362330A1
